# Earlier results, collected in patent publication US20230332104A1, “ZBTB32 INHIBITORS AND USES THEREOF” (NOVARTIS AG, priority 2020, published 2023).
# B1: XOMA 089: fully human monoclonal antibody that specifically binds and neutralizes TGF-beta 1 and 2 ligands (antibody, V domains shown)
# VH: QVQLVQSGAEVKKPGSSVKVSCKASGGTFSSYAISWVRQAPGQGLEWMGGIIPIFGTANYAQKFQGRVTITADESTSTAYMELSSLRSEDTAVYYCARGLWEVRALPSVYWGQGTLVTVSS
# VL: SYELTQPPSVSVAPGQTARITCGANDIGSKSVHWYQQKAGQAPVLVVSEDIIRPSGIPERISGSNSGNTATLTISRVEAGDEADYYCQVWDRDSDQYVFGTGTKVTVLG
# System: rodent and cynomolgus monkey TGF-β
molecule,measurement,value
B1,cross-reactivity with rodent and cynomolgus monkey TGF-β,cross-reacts
